This experiment addresses total elastase activity of relaxin-stimulated cultured SUI vaginal fibroblasts. Nature of the experiment: cell-based or functional assay.

As for “alpha-1 antitrypsin (from UniProt P01009 25-418)”, the inhibition of total elastase activity worked out at 98%.

The values above are taken from patent US20050244448A1.
